Results as given in patent US20190225669A1 (ACCELERON PHARMA, published 2019).
Where two headings read alike, the source gives them in different places. Blank lines part the entries; values can stand above or below the binder they belong to.

How the values were obtained:
BMP9 = biological target: T1, BMP9 (UniProt Q9UK05 320-429); assay: Biacore SPR; kinetics indeterminate (transient)
T1 construct: also called GDF2
T1 sequence (looked up): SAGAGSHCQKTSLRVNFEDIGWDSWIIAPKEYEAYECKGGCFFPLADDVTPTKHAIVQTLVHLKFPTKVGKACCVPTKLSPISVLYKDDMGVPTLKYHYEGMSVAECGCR
Protocol: (§1) Ligands were injected and allowed to flow over the captured receptor protein.

GDF3 [1] = biological target: T2, GDF3 (UniProt Q9NR23 251-364); assay: Biacore SPR
T2 sequence (looked up): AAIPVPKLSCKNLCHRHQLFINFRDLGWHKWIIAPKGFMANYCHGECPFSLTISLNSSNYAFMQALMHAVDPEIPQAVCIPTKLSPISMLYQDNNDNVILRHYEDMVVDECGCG
Protocol: as §1

BMP5 = biological target: T3, BMP5 (UniProt P22003 317-454, limits assumed); assay: Biacore SPR
T3 sequence (looked up): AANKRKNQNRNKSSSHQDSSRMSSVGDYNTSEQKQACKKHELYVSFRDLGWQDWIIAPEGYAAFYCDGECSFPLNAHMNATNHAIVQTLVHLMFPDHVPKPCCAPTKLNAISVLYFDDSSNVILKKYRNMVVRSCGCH
Protocol: as §1

BMP6 [2] = biological target: T4, BMP6 (UniProt P22004 382-513, limits assumed); assay: Biacore SPR
T4 sequence (looked up): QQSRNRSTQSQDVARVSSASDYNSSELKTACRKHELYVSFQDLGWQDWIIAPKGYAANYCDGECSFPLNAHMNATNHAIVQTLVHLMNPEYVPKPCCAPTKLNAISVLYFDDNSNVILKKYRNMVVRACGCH
Protocol: as §1

GDF11 [3] = biological target: T5, GDF11 (UniProt O95390 299-407); assay: Biacore SPR
T5 construct: also called BMP11
T5 sequence (looked up): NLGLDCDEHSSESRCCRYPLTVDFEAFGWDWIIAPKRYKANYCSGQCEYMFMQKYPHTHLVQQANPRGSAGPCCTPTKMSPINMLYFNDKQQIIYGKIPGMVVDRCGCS
Protocol: as §1

activin A [4] = biological target: T6, activin A (UniProt P08476 311-426); assay: Biacore SPR
T6 sequence (looked up): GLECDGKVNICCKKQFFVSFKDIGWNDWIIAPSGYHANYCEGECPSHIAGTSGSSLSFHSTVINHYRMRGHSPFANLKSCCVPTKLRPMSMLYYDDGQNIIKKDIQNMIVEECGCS
Protocol: as §1

activin B [5] = biological target: T7, activin B (UniProt P09529 293-407); assay: Biacore SPR
T7 sequence (looked up): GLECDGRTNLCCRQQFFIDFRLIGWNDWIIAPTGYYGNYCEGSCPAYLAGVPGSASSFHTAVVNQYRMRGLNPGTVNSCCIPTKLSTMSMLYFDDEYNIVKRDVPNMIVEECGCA
Protocol: as §1

GDF8 [6] = biological target: T8, GDF8 (UniProt O14793 267-375); assay: Biacore SPR
T8 construct: also called myostatin
T8 sequence (looked up): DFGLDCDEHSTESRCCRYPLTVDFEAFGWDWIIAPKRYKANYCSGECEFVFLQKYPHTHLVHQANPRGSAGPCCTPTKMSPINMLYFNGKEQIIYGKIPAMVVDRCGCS
Protocol: as §1

BMP10 [7] = biological target: T9, BMP10 (UniProt O95393 317-424); assay: Biacore SPR
T9 sequence (looked up): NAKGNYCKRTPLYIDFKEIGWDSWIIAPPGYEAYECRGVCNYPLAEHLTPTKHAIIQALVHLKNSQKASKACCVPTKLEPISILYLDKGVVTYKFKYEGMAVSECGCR
Protocol: as §1

GDF3 [8] = biological target: T2, GDF3; assay: Biacore SPR; remark: listed apart in the source
Protocol: as §1

BMP6 [9] = biological target: T4, BMP6; assay: Biacore SPR; remark: listed apart in the source
Protocol: as §1

GDF11 [10] = biological target: T5, GDF11; assay: Biacore SPR; remark: listed apart in the source
Protocol: as §1

activin A [11] = biological target: T6, activin A; assay: Biacore SPR; remark: listed apart in the source
Protocol: as §1

activin B [12] = biological target: T7, activin B; assay: Biacore SPR; remark: listed apart in the source
Protocol: as §1

GDF8 [13] = biological target: T8, GDF8; assay: Biacore SPR; remark: listed apart in the source
Protocol: as §1

BMP10 [14] = biological target: T9, BMP10; assay: Biacore SPR; remark: listed apart in the source
Protocol: as §1

- Kd (BMP9): > 1.4 nM
- Kd (GDF3 [1]): 4.5 nM
- koff (GDF3 [1]): 0.01 s⁻¹
- kon (GDF3 [1]): 2.3e+06 M⁻¹ s⁻¹
- Kd (BMP5): 57 nM
- koff (BMP5): 0.0085 s⁻¹
- kon (BMP5): 150000 M⁻¹ s⁻¹
- Kd (BMP6 [2]): 5.3 nM
- koff (BMP6 [2]): 0.0063 s⁻¹
- kon (BMP6 [2]): 1.2e+06 M⁻¹ s⁻¹
- Kd (GDF11 [3]): 0.008 nM
- koff (GDF11 [3]): 0.00075 s⁻¹
- kon (GDF11 [3]): 9.5e+07 M⁻¹ s⁻¹
- Kd (activin A [4]): 0.043 nM
- koff (activin A [4]): 0.0019 s⁻¹
- kon (activin A [4]): 4.4e+07 M⁻¹ s⁻¹
- Kd (activin B [5]): 0.017 nM
- koff (activin B [5]): 0.0002 s⁻¹
- kon (activin B [5]): 1.2e+07 M⁻¹ s⁻¹
- Kd (GDF8 [6]): 0.27 nM
- koff (GDF8 [6]): 0.001 s⁻¹
- kon (GDF8 [6]): 3.7e+06 M⁻¹ s⁻¹
- Kd (BMP10 [7]): 0.19 nM
- koff (BMP10 [7]): 0.0028 s⁻¹
- kon (BMP10 [7]): 1.5e+07 M⁻¹ s⁻¹
B1: ActRIIB-Fc:ALK7-Fc heterodimer (Fc fusion)
chain 1: GRGEAETRECIYYNANWELERTNQSGLERCEGEQDKRLHCYASWRNSSGTIELVKKGCWLDDFNCYDRQECVATEENPQVYFCCCEGNFCNERFTHLPEAGGPEVTYEPPPTAPTGGGTHTCPPCPAPELLGGPSVFLFPPKPKDTLMISRTPEVTCVVVDVSHEDPEVKFNWYVDGVEVHNAKTKPREEQYNSTYRVVSVLTVLHQDWLNGKEYKCKVSNKALPAPIEKTISKAKGQPREPQVYTLPPSRKEMTKNQVSLTCLVKGFYPSDIAVEWESNGQPENNYKTTPPVLKSDGSFFLYSKLTVDKSRWQQGNVFSCSVMHEALHNHYTQKSLSLSPGK
chain 2: GLKCVCLLCDSSNFTCQTEGACWASVMLTNGKEQVIKSCVSLPELNAQVFCHSSNNVTKTECCFTDFCNNITLHLPTASPNAPKLGPMETGGGTHTCPPCPAPELLGGPSVFLFPPKPKDTLMISRTPEVTCVVVDVSHEDPEVKFNWYVDGVEVHNAKTKPREEQYNSTYRVVSVLTVLHQDWLNGKEYKCKVSNKALPAPIEKTISKAKGQPREPQVYTLPPSREEMTKNQVSLTCLVKGFYPSDIAVEWESNGQPENNYDTTPPVLDSDGSFFLYSDLTVDKSRWQQGNVFSCSVMHEALHNHYTQKSLSLSPG
notes: C-terminal Lys optional; also called ActRIIB-Fc:ALK7 heterodimer

- Kd (BMP9): > 6.6 nM
- Kd (GDF3 [8]): 8.5 nM
- koff (GDF3 [8]): 0.0097 s⁻¹
- kon (GDF3 [8]): 1.1e+06 M⁻¹ s⁻¹
- Kd (BMP6 [9]): 1.7 nM
- koff (BMP6 [9]): 0.015 s⁻¹
- kon (BMP6 [9]): 9.3e+06 M⁻¹ s⁻¹
- Kd (GDF11 [10]): 0.2 nM
- koff (GDF11 [10]): 0.00046 s⁻¹
- kon (GDF11 [10]): 2.3e+06 M⁻¹ s⁻¹
- Kd (activin A [11]): 0.046 nM
- koff (activin A [11]): 0.0016 s⁻¹
- kon (activin A [11]): 3.6e+07 M⁻¹ s⁻¹
- Kd (activin B [12]): 0.079 nM
- koff (activin B [12]): 0.00031 s⁻¹
- kon (activin B [12]): 3.9e+06 M⁻¹ s⁻¹
- Kd (GDF8 [13]): 0.49 nM
- koff (GDF8 [13]): 0.00052 s⁻¹
- kon (GDF8 [13]): 1.1e+06 M⁻¹ s⁻¹
- Kd (BMP10 [14]): 0.15 nM
- koff (BMP10 [14]): 0.0022 s⁻¹
- kon (BMP10 [14]): 2.3e+07 M⁻¹ s⁻¹
B2: ActRIIB-Fc:ALK5-Fc heterodimer (Fc fusion)
chain 1: GRGEAETRECIYYNANWELERTNQSGLERCEGEQDKRLHCYASWRNSSGTIELVKKGCWLDDFNCYDRQECVATEENPQVYFCCCEGNFCNERFTHLPEAGGPEVTYEPPPTAPTGGGTHTCPPCPAPELLGGPSVFLFPPKPKDTLMISRTPEVTCVVVDVSHEDPEVKFNWYVDGVEVHNAKTKPREEQYNSTYRVVSVLTVLHQDWLNGKEYKCKVSNKALPAPIEKTISKAKGQPREPQVYTLPPSRKEMTKNQVSLTCLVKGFYPSDIAVEWESNGQPENNYKTTPPVLKSDGSFFLYSKLTVDKSRWQQGNVFSCSVMHEALHNHYTQKSLSLSPGK
chain 2: ALLPGATALQCFCHLCTKDNFTCVTDGLCFVSVTETTDKVIHNSMCIAEIDLIPRDRPFVCAPSSKTGSVTTTYCCNQDHCNKIELPTTVKSSPGLGPVETGGGTHTCPPCPAPELLGGPSVFLFPPKPKDTLMISRTPEVTCVVVDVSHEDPEVKFNWYVDGVEVHNAKTKPREEQYNSTYRVVSVLTVLHQDWLNGKEYKCKVSNKALPAPIEKTISKAKGQPREPQVYTLPPSREEMTKNQVSLTCLVKGFYPSDIAVEWESNGQPENNYDTTPPVLDSDGSFFLYSDLTVDKSRWQQGNVFSCSVMHEALHNHYTQKSLSLSPG
notes: C-terminal Lys optional; also called ActRIIB-Fc:ALK5-Fc heterodimeric complex
